Literature values as cited in patent US20200069786A1, “COMPOSITION AND PROCESS FOR PREPARING VACCINE” (TREOS BIO ZRT., priority 2018, published 2020).
Like-named read-outs stand apart in the source and are kept apart here.

System: TSA
[1] = TSA expression rate in BLADDER cancer
[2] = TSA expression rate in Esophageal
[3] = TSA expression rate in GASTRIC cancer
[4] = TSA expression rate in HEAD and NECK
[5] = TSA expression rate in LEUKEMIAS
[6] = TSA expression rate in LUNG cancer
[7] = TSA expression rate in LYMPHOMAS
[8] = TSA expression rate in MELANOMA
[9] = TSA expression rate in PEDIATRIC
[10] = TSA expression rate in Cervical cancer
[11] = TSA expression rate in PROSTATE cancer

B1: MAGE-C1 (protein, UniProt O60732 1-1142, looked up)
Melanoma-associated antigen C1: MGDKDMPTAGMPSLLQSSSESPQSCPEGEDSQSPLQIPQSSPESDDTLYPLQSPQSRSEGEDSSDPLQRPPEGKDSQSPLQIPQSSPEGDDTQSPLQNSQSSPEGKDSLSPLEISQSPPEGEDVQSPLQNPASSFFSSALLSIFQSSPESTQSPFEGFPQSVLQIPVSAASSSTLVSIFQSSPESTQSPFEGFPQSPLQIPVSRSFSSTLLSIFQSSPERTQSTFEGFAQSPLQIPVSPSSSSTLLSLFQSFSERTQSTFEGFAQSSLQIPVSPSFSSTLVSLFQSSPERTQSTFEGFPQSPLQIPVSSSSSSTLLSLFQSSPERTHSTFEGFPQSLLQIPMTSSFSSTLLSIFQSSPESAQSTFEGFPQSPLQIPGSPSFSSTLLSLFQSSPERTHSTFEGFPQSPLQIPMTSSFSSTLLSILQSSPESAQSAFEGFPQSPLQIPVSSSFSYTLLSLFQSSPERTHSTFEGFPQSPLQIPVSSSSSSSTLLSLFQSSPECTQSTFEGFPQSPLQIPQSPPEGENTHSPLQIVPSLPEWEDSLSPHYFPQSPPQGEDSLSPHYFPQSPPQGEDSLSPHYFPQSPQGEDSLSPHYFPQSPPQGEDSMSPLYFPQSPLQGEEFQSSLQSPVSICSSSTPSSLPQSFPESSQSPPEGPVQSPLHSPQSPPEGMHSQSPLQSPESAPEGEDSLSPLQIPQSPLEGEDSLSSLHFPQSPPEWEDSLSPLHFPQFPPQGEDFQSSLQSPVSICSSSTSLSLPQSFPESPQSPPEGPAQSPLQRPVSSFFSYTLASLLQSSHESPQSPPEGPAQSPLQSPVSSFPSSTSSSLSQSSPVSSFPSSTSSSLSKSSPESPLQSPVISFSSSTSLSPFSEESSSPVDEYTSSSDTLLESDSLTDSESLIESEPLFTYTLDEKVDELARFLLLKYQVKQPITKAEMLTNVISRYTGYFPVIFRKAREFIEILFGISLREVDPDDSYVFVNTLDLTSEGCLSDEQGMSQNRLLILILSIIFIKGTYASEEVIWDVLSGIGVRAGREHFAFGEPRELLTKVWVQEHYLEYREVPNSSPPRYEFLWGPRAHSEVIKRKVVEFLAMLKNTVPITFPSSYKDALKDVEERAQAIIDTTDDSTATESASSSVMSPSFSSE
TSA Expression Rate (ER) (BRAIN): 13%
TSA Expression Rate (ER) (BREAST): 16%
TSA Expression Rate (ER) (HCC): 20%
TSA Expression Rate (ER) (OVARIAN): 20%
TSA Expression Rate (ER) (PANCREATIC): 0%
TSA Expression Rate (ER) (THYROID): 22%
Expression Rate (ER) % [1]: 27%
Expression Rate (ER) % [2]: 12%
Expression Rate (ER) % [3]: 6%
Expression Rate (ER) % [4]: 15%
Expression Rate (ER) % (TSA expression rate in Kidney): 0%
Expression Rate (ER) % [5]: 70%
Expression Rate (ER) % [6]: 19%
Expression Rate (ER) % [7]: 13%
Expression Rate (ER) % [8]: 45%
Expression Rate (ER) % [9]: 39%

B2: MAGE-A1 (protein, UniProt P43355 1-309, looked up)
Melanoma-associated antigen 1: MSLEQRSLHCKPEEALEAQQEALGLVCVQAATSSSSPLVLGTLEEVPTAGSTDPPQSPQGASAFPTTINFTRQRQPSEGSSSREEEGPSTSCILESLFRAVITKKVADLVGFLLLKYRAREPVTKAEMLESVIKNYKHCFPEIFGKASESLQLVFGIDVKEADPTGHSYVLVTCLGLSYDGLLGDNQIMPKTGFLIIVLVMIAMEGGHAPEEEIWEELSVMEVYDGREHSAYGEPRKLLTQDLVQEKYLEYRQVPDSDPARYEFLWGPRALAETSYVKVLEYVIKVSARVRFFFPSLREAALREEEEGV
TSA Expression Rate (ER) (BRAIN): 41%
TSA Expression Rate (ER) (BREAST): 31%
TSA Expression Rate (ER) (HCC): 56%
TSA Expression Rate (ER) (LUNG): 42%
TSA Expression Rate (ER) (OVARIAN): 24%
TSA Expression Rate (ER) (PANCREATIC): 27%
TSA Expression Rate (ER) (THYROID): 17%
Expression Rate (ER) % [1]: 34%
Expression Rate (ER) % (TSA expression rate in CRC): 14%
Expression Rate (ER) % [10]: 17%
Expression Rate (ER) % [2]: 46%
Expression Rate (ER) % [3]: 31%
Expression Rate (ER) % [4]: 23%
Expression Rate (ER) % (TSA expression rate in Kidney): 11%
Expression Rate (ER) % [5]: 20%
Expression Rate (ER) % [7]: 9%
Expression Rate (ER) % [8]: 37%
Expression Rate (ER) % [9]: 44%
Expression Rate (ER) % [11]: 13%

B3: MAGE-A3 (protein, UniProt P43357 1-314, looked up)
Melanoma-associated antigen 3: MPLEQRSQHCKPEEGLEARGEALGLVGAQAPATEEQEAASSSSTLVEVTLGEVPAAESPDPPQSPQGASSLPTTMNYPLWSQSYEDSSNQEEEGPSTFPDLESEFQAALSRKVAELVHFLLLKYRAREPVTKAEMLGSVVGNWQYFFPVIFSKASSSLQLVFGIELMEVDPIGHLYIFATCLGLSYDGLLGDNQIMPKAGLLIIVLAIIAREGDCAPEEKIWEELSVLEVFEGREDSILGDPKKLLTQHFVQENYLEYRQVPGSDPACYEFLWGPRALVETSYVKVLHHMVKISGGPHISYPPLHEWVLREGEE
TSA Expression Rate (ER) (BRAIN): 42%
TSA Expression Rate (ER) (BREAST): 28%
TSA Expression Rate (ER) (HCC): 34%
TSA Expression Rate (ER) (LUNG): 37%
TSA Expression Rate (ER) (OVARIAN): 30%
TSA Expression Rate (ER) (PANCREATIC): 11%
TSA Expression Rate (ER) (THYROID): 22%
Expression Rate (ER) % [1]: 42%
Expression Rate (ER) % (TSA expression rate in CRC): 22%
Expression Rate (ER) % [10]: 16%
Expression Rate (ER) % [2]: 66%
Expression Rate (ER) % [3]: 37%
Expression Rate (ER) % [4]: 40%
Expression Rate (ER) % (TSA expression rate in Kidney): 27%
Expression Rate (ER) % [5]: 65%
Expression Rate (ER) % [7]: 17%
Expression Rate (ER) % [8]: 60%
Expression Rate (ER) % [9]: 76%
Expression Rate (ER) % [11]: 15%

B4: PLAC1 (protein, UniProt Q9HBJ0 23-212, looked up)
Placenta-specific protein 1: QSPMTVLCSIDWFMVTVHPFMLNNDVCVHFHELHLGLGCPPNHVQPHAYQFTYRVTECGIRAKAVSQDMVIYSTEIHYSSKGTPSKFVIPVSCAAPQKSPWLTKPCSMRVASKSRATAQKDEKCYEVFSLSQSSQRPNCDCPPCVFSEEEHTQVPCHQAGAQEAQPLQPSHFLDISEDWSLHTDDMIGSM
TSA Expression Rate (ER) (BREAST): 4%
TSA Expression Rate (ER) (HCC): 41%
TSA Expression Rate (ER) (LUNG): 68%
TSA Expression Rate (ER) (OVARIAN): 21%
TSA Expression Rate (ER) (PANCREATIC): 44%
Expression Rate (ER) % (TSA expression rate in CRC): 27%
Expression Rate (ER) % [11]: 100%

B5: MORC1 (protein, UniProt Q86VD1 1-984, looked up)
MORC family CW-type zinc …: MDDRYPALQRAQLRLDFIHANSTTHSFLFGALAELLDNARDAGAERLDVFSVDNEKLQGGFMLCFLDDGCGMSPEEASDIIYFGRSKKRLSTLKFIGQYGNGLKSGSMRIGKDFILFTKKEETMTCVFFSQTFCEEESLSEVVVPMPSWLIRTRESVTDDPQKFAMELSIIYKYSPFKTEAELMQQFDVIYGKCGTLLVIYNLKLLLNGEPELDVKTDKEDILMAGALEDFPARWSFRAYTSVLYFNPWMRIFIQAKRVKTKHLCYCLYRPRKYLYVTSSFKGAFKDEVKKAEEAVKIAESILKEAQIKVNQCDRTSLSSAKDVLQRALEDVEAKQKNLKEKQRELKTARTLSLFYGVNVENRSQAGMFIYSNNRLIKMHEKVGSQLKLKSLLGAGVVGIVNIPLEVMEPSHNKQEFLNVQEYNHLLKVMGQYLVQYCKDTGINNRNLTLFCNEFGYQNDIDVEKPLNSFQYQRRQAMGIPFIIQCDLCLKWRVLPSSTNYQEKEFFDIWICANNPNRLENSCHQVECLPSIPLGTMSTISPSKNEKEKQLRESVIKYQNRLAEQQPQPQFIPVDEITVTSTCLTSAHKENTKTQKIRLLGDDLKHESLSSFELSASRRGQKRNIEETDSDVEYISETKIMKKSMEEKMNSQQQRIPVALPENVKLAERSQRSQIANITTVWRAQPTEGCLKNAQAASWEMKRKQSLNFVEECKVLTEDENTSDSDIILVSDKSNTDVSLKQEKKEIPLLNQEKQELCNDVLAMKRSSSLPSWKSLLNVPMEDVNLSSGHIARVSVSGSCKVASSPASSQSTPVKETVRKLKSKLREILLYFFPEHQLPSELEEPALSCELEQCPEQMNKKLKMCFNQIQNTYMVQYEKKIKRKLQSIIYDSNTRGIHNEISLGQCENKRKISEDKLKNLRIKLALLLQKLQLGGPEGDLEQTDTYLEALLKEDNLLFQNNLNKVTIDARHRLPLEKNEKTSEN
TSA Expression Rate (ER) (BREAST): 0%
TSA Expression Rate (ER) (OVARIAN): 14%
TSA Expression Rate (ER) (THYROID): 0%
Expression Rate (ER) % (TSA expression rate in CRC): 0%
Expression Rate (ER) % [10]: 0%
Expression Rate (ER) % (TSA expression rate in Kidney): 0%
Expression Rate (ER) % [6]: 18%
Expression Rate (ER) % [8]: 19%
Expression Rate (ER) % [11]: 0%

B6: EpCAM (protein, UniProt P16422 24-314, looked up)
Epithelial cell adhesion …: QEECVCENYKLAVNCFVNNNRQCQCTSVGAQNTVICSKLAAKCLVMKAEMNGSKLGRRAKPEGALQNNDGLYDPDCDESGLFKAKQCNGTSMCWCVNTAGVRRTDKDTEITCSERVRTYWIIIELKHKAREKPYDSKSLRTALQKEITTRYQLDPKFITSILYENNVITIDLVQNSSQKTQNDVDIADVAYYFEKDVKGESLFHSKKMDLTVNGEQLDLDPGQTLIYYVDEKAPEFSMQGLKAGVIAVIVVVVIAVVAGIVVLVISRKKRMAKYEKAEIKEMGEMHRELNA
TSA Expression Rate (ER) (BRAIN): 16%
TSA Expression Rate (ER) (BREAST): 76%
TSA Expression Rate (ER) (HCC): 41%
TSA Expression Rate (ER) (LUNG): 78%
TSA Expression Rate (ER) (OVARIAN): 92%
TSA Expression Rate (ER) (PANCREATIC): 85%
TSA Expression Rate (ER) (THYROID): 83%
Expression Rate (ER) % [1]: 54%
Expression Rate (ER) % (TSA expression rate in CRC): 88%
Expression Rate (ER) % [10]: 36%
Expression Rate (ER) % [2]: 81%
Expression Rate (ER) % [3]: 90%
Expression Rate (ER) % (TSA expression rate in Kidney): 55%
Expression Rate (ER) % [11]: 98%

B7: SCP3a (protein, UniProt Q8IZU3 1-236, looked up)
Synaptonemal complex protein 3: MVSSGKKYSRKSGKPSVEDQFTRAYDFETEDKKDLSGSEEDVIEGKTAVIEKRRKKRSSAGVVEDMGGEVQNMLEGVGVDINKALLAKRKRLEMYTKASLKTSNQKIEHVWKTQQDQRQKLNQEYSQQFLTLFQQWDLDMQKAEEQEEKILNMFRQQQKILQQSRIVQSQRLKTIKQLYEQFIKSMEELEKNHDNLLTGAQNEFKKEMAMLQKKIMMETQQQEIASVRKSLQSMLF
TSA Expression Rate (ER) (OVARIAN): 25%
Expression Rate (ER) % [5]: 47%

B8: CRISP2 (protein, UniProt P16562 22-243, looked up)
Cysteine-rich secretory …: KDPAFTALLTTQLQVQREIVNKHNELRKAVSPPASNMLKMEWSREVTTNAQRWANKCTLQHSDPEDRKTSTRCGENLYMSSDPTSWSSAIQSWYDEILDFVYGVGPKSPNAVVGHYTQLVWYSTYQVGCGIAYCPNQDSLKYYYVCQYCPAGNNMNRKNTPYQQGTPCAGCPDDCDKGLCTNSCQYQDLLSNCDSLKNTAGCEHELLKEKCKATCLCENKIY
TSA Expression Rate (ER) (BREAST): 15%
TSA Expression Rate (ER) (LUNG): 29%
TSA Expression Rate (ER) (OVARIAN): 14%
TSA Expression Rate (ER) (THYROID): 0%
Expression Rate (ER) % (TSA expression rate in CRC): 0%
Expression Rate (ER) % [10]: 17%
Expression Rate (ER) % [4]: 11%
Expression Rate (ER) % (TSA expression rate in Kidney): 14%
Expression Rate (ER) % [8]: 6%
Expression Rate (ER) % [11]: 38%
